B1: KRT13 (parent)
chain: KTIEELRDKILTATIENNRVILEI
B2: BTBD1 (parent)
chain: FVLGKGRGAAAAGGPQRIPAHRFV

Variants of: B1
Experiment: protein stability index of a GFP-peptide fusion (GPS, HEK-293T) (PSI 1-6); higher = more stable
Details: c terminus: a fixed tail appended
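Note: lentivirally expressed fusions sorted by FACS into six bins by GFP to DsRed ratio, PSI derived from sequencing read proportions per bin multiplied by bin number.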

| Variant | protein stability index |
| --- | --- |
| R7I | 2.6 |
| R7K | 1.51 |
| R7L | 3.71 |
| R7M | 2.07 |
| R7N | 2.38 |
| R7P | 1.15 |
| R7Q | 2.85 |
| R7T | 2.16 |
| D8A | 2.49 |
| D8F | 2.81 |
| D8I | 1.64 |
| D8K | 2.66 |
| D8L | 1.77 |
| D8M | 3.19 |
| D8P | 2.46 |
| D8Q | 1.67 |
| D8S | 2.79 |
| D8Y | 2.14 |
| K9A | 1.85 |
| K9C | 3.32 |
| K9D | 2.24 |
| K9E | 2.7 |
| K9F | 2.7 |
| K9G | 2.21 |
| K9L | 2.37 |
| K9N | 2.29 |

| Variant | protein stability index |
| --- | --- |
| K9P | 2.84 |
| K9S | 1.99 |
| K9T | 2.35 |
| K9V | 2.86 |
| I10A | 2.17 |
| I10C | 2.28 |
| I10D | 1.73 |
| I10E | 2 |
| I10F | 3.07 |
| I10G | 1.69 |
| I10H | 2.12 |
| I10K | 1.55 |
| I10L | 1.47 |
| I10M | 2.3 |
| I10N | 1.78 |
| I10P | 2.7 |
| I10Q | 1.54 |
| I10R | 2.31 |
| I10S | 2.2 |
| I10T | 1.43 |
| I10V | 1.75 |
| I10W | 3.93 |
| I10Y | 3.2 |
| L11A | 1.3 |
| L11C | 2.33 |
| L11D | 1.57 |

| Variant | protein stability index |
| --- | --- |
| L11E | 1.92 |
| L11F | 2.34 |
| L11G | 1.87 |
| L11H | 1.52 |
| L11K | 1.59 |
| L11M | 2.94 |
| L11N | 2.85 |
| L11P | 1.95 |
| L11Q | 2.72 |
| L11R | 1.39 |
| L11S | 2.68 |
| L11T | 1.91 |
| L11Y | 3.58 |
| T12A | 2.5 |
| T12D | 1.76 |
| T12G | 1.59 |
| T12H | 2.66 |
| T12I | 3.39 |
| T12N | 2.83 |
| T12P | 2.42 |
| T12Q | 2.65 |
| T12R | 1.88 |
| T12V | 3.5 |
| T12Y | 3.8 |
| A13C | 2.5 |
| A13D | 1.53 |

| Variant | protein stability index |
| --- | --- |
| A13G | 3.86 |
| A13H | 2.38 |
| A13K | 1.67 |
| A13L | 2.61 |
| A13M | 1.08 |
| A13N | 2.31 |
| A13P | 1.87 |
| A13Q | 1.81 |
| A13R | 3.35 |
| A13S | 3.69 |
| A13T | 1.92 |
| A13V | 3 |
| A13W | 2.81 |
| T14A | 4.11 |
| T14C | 3.4 |
| T14D | 2.57 |
| T14E | 2.77 |
| T14G | 4.63 |
| T14H | 2.53 |
| T14L | 1.71 |
| T14M | 2.52 |
| T14N | 3.03 |
| T14P | 2.52 |
| T14Q | 2.99 |
| T14R | 2.59 |
| T14V | 1.02 |

| Variant | protein stability index |
| --- | --- |
| I15A | 1.66 |
| I15D | 1.75 |
| I15E | 1.69 |
| I15F | 1.08 |
| I15G | 2.77 |
| I15K | 3.7 |
| I15L | 2.31 |
| I15N | 2.98 |
| I15P | 2.17 |
| I15Q | 2.07 |
| I15S | 2.17 |
| I15T | 2.6 |
| E16A | 3.13 |
| E16C | 2.33 |
| E16D | 3.13 |
| E16F | 3.08 |
| E16G | 2.38 |
| E16H | 2.52 |
| E16L | 3.35 |
| E16M | 2.72 |
| E16Q | 3.1 |
| E16S | 2.3 |
| E16V | 2.8 |
| E16W | 3.31 |
| E16Y | 1.32 |
| N17C | 3.65 |

| Variant | protein stability index |
| --- | --- |
| N17D | 2.84 |
| N17E | 2.73 |
| N17G | 3.5 |
| N17I | 1.73 |
| N17K | 2.4 |
| N17L | 1.78 |
| N17M | 2.57 |
| N17P | 3.1 |
| N17Q | 3.06 |
| N17T | 3.19 |
| N17V | 1.59 |
| N18D | 2.18 |
| N18E | 3.06 |
| N18G | 2.33 |
| N18H | 2.65 |
| N18I | 2.9 |
| N18K | 3.44 |
| N18P | 3.68 |
| N18R | 3.44 |
| N18S | 2.99 |
| N18W | 1.96 |
| N18Y | 2.01 |
| R19D | 2.11 |
| R19E | 2.47 |
| R19G | 3.05 |
| R19H | 3.1 |

| Variant | protein stability index |
| --- | --- |
| R19I | 3 |
| R19M | 2.14 |
| R19N | 1.76 |
| R19P | 2.25 |
| R19Q | 2.64 |
| R19S | 2.23 |
| R19T | 2.99 |
| R19V | 2.64 |
| R19W | 2.74 |
| V20A | 1.82 |
| V20D | 2.35 |
| V20E | 2.27 |
| V20F | 1.8 |
| V20G | 1.6 |
| V20H | 1.6 |
| V20I | 2.69 |
| V20K | 2.1 |
| V20L | 3.48 |
| V20N | 2.57 |
| V20P | 1.78 |
| V20Q | 2.05 |
| V20R | 1.72 |
| V20S | 2.01 |
| V20T | 2.33 |
| V20W | 3.15 |
| V20Y | 1.78 |

| Variant | protein stability index |
| --- | --- |
| I21C | 2.42 |
| I21D | 2.43 |
| I21E | 2.19 |
| I21F | 3.3 |
| I21G | 1.62 |
| I21H | 2.49 |
| I21K | 1.74 |
| I21L | 2.52 |
| I21M | 2.18 |
| I21N | 1.64 |
| I21P | 2.44 |
| I21Q | 1.94 |
| I21R | 2.49 |
| I21S | 1.55 |
| I21T | 1.47 |
| I21V | 2.6 |
| I21Y | 2.79 |
| L22A | 2.2 |
| L22C | 2.8 |
| L22D | 2.84 |
| L22E | 3.14 |
| L22F | 3.35 |
| L22G | 1.8 |
| L22H | 2.52 |
| L22K | 2.38 |
| L22M | 2.2 |

| Variant | protein stability index |
| --- | --- |
| L22N | 2.83 |
| L22P | 3.33 |
| L22Q | 2.88 |
| L22R | 2.14 |
| L22S | 2.1 |
| L22T | 1.93 |
| L22V | 2.97 |
| L22Y | 2.83 |
| E23A | 1.85 |
| E23D | 2.45 |
| E23F | 4.41 |
| E23G | 2.06 |
| E23H | 2.05 |
| E23I | 2.71 |
| E23K | 1.25 |
| E23L | 2.42 |
| E23M | 3.54 |
| E23P | 2.08 |
| E23Q | 2.47 |
| E23R | 2.55 |
| E23S | 2.78 |
| E23T | 2.79 |
| E23V | 3.08 |
| E23W | 2.9 |
| E23Y | 2.07 |
| I24A | 2.65 |

| Variant | protein stability index |
| --- | --- |
| I24C | 2.44 |
| I24D | 3.09 |
| I24E | 2.65 |
| I24F | 3 |
| I24G | 2.63 |
| I24H | 1.93 |
| I24K | 3.08 |
| I24L | 3.35 |
| I24M | 1.9 |
| I24N | 2.64 |
| I24P | 3.4 |
| I24Q | 2.44 |
| I24R | 1.98 |
| I24S | 1.92 |
| I24T | 1.73 |
| I24V | 2.97 |
| I24W | 2.09 |
| I24Y | 2.16 |

Variants of: B2
Experiment: as above
Details: c terminus: a fixed tail appended

| Variant | protein stability index |
| --- | --- |
| G8V | 1.39 |
| K5A | 1.2 |
| G8D | 2.13 |
| A20G | 1.46 |
| P15L | 1.43 |
| H21L | 2.61 |
| G13N | 2.57 |
| V2N | 3.23 |
| K5D | 1.89 |
| F1W | 1.95 |
| F1N | 3.31 |
| G4A | 1.73 |
| G6E | 2.1 |
| G13P | 1.75 |
| V2A | 1.99 |
| G6R | 1.78 |
| G8Q | 1.48 |
| A12G | 2.21 |
| R7F | 1.27 |
| F23S | 2.93 |
| V2W | 1.76 |

| Variant | protein stability index |
| --- | --- |
| L3C | 1.67 |
| G13D | 2.24 |
| R17F | 1.28 |
| G14V | 1.9 |
| G13Q | 2 |
| A11E | 1.94 |
| A9N | 1.95 |
| G4R | 2.33 |
| L3I | 1.68 |
| A9T | 1.96 |
| V24S | 2.21 |
| I18P | 2.12 |
| G4F | 2.27 |
| V24P | 2.47 |
| P19E | 1.78 |
| P19V | 1.26 |
| V24D | 2.27 |
| R17I | 3.15 |
| R7T | 2.23 |
| R17W | 1.41 |
| V2K | 2.85 |

| Variant | protein stability index |
| --- | --- |
| F1G | 3.51 |
| V2M | 2.21 |
| V2I | 1.68 |
| Q16E | 1.67 |
| A20H | 2.4 |
| G8L | 1.69 |
| G8N | 1.62 |
| Q16P | 1.86 |
| P19S | 1.31 |
| A11K | 1.77 |
| A10Q | 2.03 |
| G6I | 2.4 |
| A10S | 2 |
| G6F | 1.02 |
| G6T | 1.61 |
| A9I | 1.94 |
| P15W | 1.03 |
| G14Q | 2.88 |
| R17H | 1.86 |
| G4S | 1.61 |
| Q16N | 2.54 |

| Variant | protein stability index |
| --- | --- |
| G8A | 1.33 |
| I18Q | 2.03 |
| G6D | 1.88 |
| A11R | 1.41 |
| A9Y | 1.87 |
| V2Y | 1.8 |
| A11H | 1.96 |
| Q16D | 1.41 |
| A11T | 1.52 |
| K5P | 1.74 |
| A11F | 1.04 |
| G6Q | 1.91 |
| A12D | 1.91 |
| G14S | 2.64 |
| L3A | 2.17 |
| G13H | 1.71 |
| A12N | 1.78 |
| G14I | 1.26 |
| G4C | 1.54 |
